In data set [1] the target is ZFHD1-p65 (ZFHD-004, constitutive) (Artificial (Homo sapiens/Mus …)). Nature of the data set: cell_activity; U2OS, constitutive TF; TMP/DMSO ratio only, not regulated by ligand.
In data set [2] the target is ZFHD1-p65-CA2(L156H) (ZFHD-019) (Artificial). As to the kind of experiment: cell_activity; ARPE-19, GFP MFI 10 uM ACZ vs DMSO, 48 h; in U2OS ACZ EC50 of payload 1.1 uM (Example 9). As to the method: Cells were cultured in DMEM-F12 media supplemented with 10% FBS.
Ligand treatment: Each cell line was plated at a density of 15,000 cells/well in 6-8 wells of a 24-well plate. Cells were allowed to adhere overnight. […] After 48 hours incubation, cells were removed from the plate with 0.25% trypsin and collected. […] For flow cytometry, samples were washed once with cell staining buffer (Biolegend, San Diego, Calif.), resuspended in cell staining buffer with 1% QSol™ buffer (Intellicyt Corporation, Albuquerque, N. Mex.), and analyzed by flow cytometry.

The target in data set [3] is ZFHD1-p65-ecDHFR(R12Y,Y100I) (ZFHD-005) (Artificial). Nature of the data set: cell_activity; U2OS, GFP MFI 10 uM TMP vs DMSO, 72 h. The procedure: (§1) Ligand treatment: Each cell line was plated in 12-well plates at a density of 80,000 cells/well and allowed to adhere overnight. Media was removed and replacement media either with 10 μM Trimethoprim (TMP) or 0.1% DMSO was added. Cells were incubated for 24 hour, 48 hour, and 72 hour timepoints. At each timepoint, cells were removed from the plates with 0.25% trypsin for collection. A 0 hour timepoint was also collected before addition of TMP or DMSO.

For data set [4], the target named is ZFHD1-ecDHFR(R12Y,Y100I)-p65 (ZFHD-008) (Artificial). The data set is described as above. The procedure:
as §1

The target in data set [5] is ZFHD1-p65-linker-ecDHFR(R12Y,Y100I) (ZFHD-009) (Artificial). Described as above. The procedure:
as §1

The target of data set [6] is ZFHD1-p65-CA2(L156H) (ZFHD-048) (Artificial). As to the kind of experiment: cell_activity; Jurkat, GFP MFI 10 uM ACZ vs DMSO, 48 h.

B1: 8xZFHD1 binding sites of payload ZFHD-007 (dsDNA)
DNA 1: TAATGATGGGCGCACGAGTAATGATGGGCGGACGACTAATGATGGGCGCACGAGTAATGATGGGCGTCTAGCTAATGATGGGCGCTAGAGTAATGATGGGCGGTAGACTAATGATGGGCGCTCCAGTAATGATGGGCG
DNA 2: CGCCCATCATTACTGGAGCGCCCATCATTAGTCTACCGCCCATCATTACTCTAGCGCCCATCATTAGCTAGACGCCCATCATTACTCGTGCGCCCATCATTAGTCGTCCGCCCATCATTACTCGTGCGCCCATCATTA
Consider B1, for which the activity in data set [1] is 0.894 fold; in data set [2] it was roughly 1.9 fold; in data set [3] it was 11.4 fold; in data set [4], 3.57 fold; in data set [5], 5.71 fold.

B2: 8xZFHD1 BS payload ZFHD-022 (dsDNA)
DNA 1: TAATGATGGGCGCACGAGTAATGATGGGCGGACGACTAATGATGGGCGCACGAGTAATGATGGGCGTCTAGCTAATGATGGGCGCTAGAGTAATGATGGGCGGTAGACTAATGATGGGCGCTCCAGTAATGATGGGCG
DNA 2: CGCCCATCATTACTGGAGCGCCCATCATTAGTCTACCGCCCATCATTACTCTAGCGCCCATCATTAGCTAGACGCCCATCATTACTCGTGCGCCCATCATTAGTCGTCCGCCCATCATTACTCGTGCGCCCATCATTA
The molecule B2 had an activity in data set [6] of roughly 2.1 fold.

The values above are taken from patent US20230056856, “COMPOSITIONS AND METHODS FOR TUNABLE REGULATION OF TRANSCRIPTION” (OBSIDIAN THERAPEUTICS, INC., published 2023).
